Experimental data published in patent US20150104459A1.

How the values were obtained:
[1] = biological target: M2 protein of influenza A/Wisconsin/67/05 (H3N2), on inactivated whole virions (influenza A virus A/Wisconsin/67/05 (H3N2)); experiment: ELISA, positive control antibody on inactivated whole virions
[2] = biological target: 23mer synthetic M2e peptide of A/Fort Worth/1/50 (influenza A virus A/Fort Worth/1/50 (H1N1)); experiment: ELISA, 23mer M2e peptide coated at 1 ug/ml

TCN-032 (8I10) (antibody), sequence (VH): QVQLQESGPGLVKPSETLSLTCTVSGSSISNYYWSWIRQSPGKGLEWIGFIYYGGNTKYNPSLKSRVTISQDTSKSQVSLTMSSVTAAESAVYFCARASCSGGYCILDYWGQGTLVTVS
TCN-032 (8I10) (antibody), sequence (VL): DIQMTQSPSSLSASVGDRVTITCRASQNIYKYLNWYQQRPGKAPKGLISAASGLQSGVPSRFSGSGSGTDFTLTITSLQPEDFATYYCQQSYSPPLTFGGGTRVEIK

Substance | ELISA virus binding (OD450) [1] | EC50 [2]
TCN-032 (8I10) (antibody) | 3.62 OD450 | –
chimeric mouse V-region/human IgG1 kappa 14C2 antibody | – | 0.01 µg/mL
